# Where “and” joins values, the source holds several entries; their conditions need not be identical. Identical values can stand only once. Bridge positions count the residues as written; N and C are the ends. Square brackets hold non-standard residues; d marks the D form. Ends that are not written are not given here. Phe(4-tBu) = CC(C)(C)c1ccc(C[C@H](N)C(=O)O)cc1; Bip = N[C@@H](Cc1ccc(-c2ccccc2)cc1)C(=O)O; 1Nal = N[C@@H](Cc1cccc2ccccc12)C(=O)O; 2Nal = N[C@@H](Cc1ccc2ccccc2c1)C(=O)O; NMeR = CN[C@@H](CCCNC(=N)N)C(=O)O; Tic = O=C(O)[C@@H]1Cc2ccccc2CN1; β3hE = N[C@@H](CCC(=O)O)CC(=O)O; NMeK = CN[C@@H](CCCCN)C(=O)O; Pen = CC(C)(S)[C@H](N)C(=O)O; dNMeK = CN[C@H](CCCCN)C(=O)O
# How the values were obtained:
# [1] = molecular target: human α4β7 integrin on cells (human) (UniProt P13612); experiment: RPMI8866 adhesion to MAdCAM-1
# [2] = molecular target: α4β1 (R&D Systems #5668-A4) (UniProt P13612); experiment: competition ELISA vs VCAM-1
# [3] = molecular target: rh integrin α4β7 (R&D Systems #5397-A30) (human) (UniProt P13612); experiment: competition ELISA vs MAdCAM-1
# [4] = molecular target: mouse α4β7 integrin on TK1 cells (mouse) (UniProt Q00651); experiment: TK1 adhesion to MAdCAM-1
# Sequence of mouse α4β7 integrin on TK1 cells (mouse) (Q00651 41-1039, chain 1 of 2): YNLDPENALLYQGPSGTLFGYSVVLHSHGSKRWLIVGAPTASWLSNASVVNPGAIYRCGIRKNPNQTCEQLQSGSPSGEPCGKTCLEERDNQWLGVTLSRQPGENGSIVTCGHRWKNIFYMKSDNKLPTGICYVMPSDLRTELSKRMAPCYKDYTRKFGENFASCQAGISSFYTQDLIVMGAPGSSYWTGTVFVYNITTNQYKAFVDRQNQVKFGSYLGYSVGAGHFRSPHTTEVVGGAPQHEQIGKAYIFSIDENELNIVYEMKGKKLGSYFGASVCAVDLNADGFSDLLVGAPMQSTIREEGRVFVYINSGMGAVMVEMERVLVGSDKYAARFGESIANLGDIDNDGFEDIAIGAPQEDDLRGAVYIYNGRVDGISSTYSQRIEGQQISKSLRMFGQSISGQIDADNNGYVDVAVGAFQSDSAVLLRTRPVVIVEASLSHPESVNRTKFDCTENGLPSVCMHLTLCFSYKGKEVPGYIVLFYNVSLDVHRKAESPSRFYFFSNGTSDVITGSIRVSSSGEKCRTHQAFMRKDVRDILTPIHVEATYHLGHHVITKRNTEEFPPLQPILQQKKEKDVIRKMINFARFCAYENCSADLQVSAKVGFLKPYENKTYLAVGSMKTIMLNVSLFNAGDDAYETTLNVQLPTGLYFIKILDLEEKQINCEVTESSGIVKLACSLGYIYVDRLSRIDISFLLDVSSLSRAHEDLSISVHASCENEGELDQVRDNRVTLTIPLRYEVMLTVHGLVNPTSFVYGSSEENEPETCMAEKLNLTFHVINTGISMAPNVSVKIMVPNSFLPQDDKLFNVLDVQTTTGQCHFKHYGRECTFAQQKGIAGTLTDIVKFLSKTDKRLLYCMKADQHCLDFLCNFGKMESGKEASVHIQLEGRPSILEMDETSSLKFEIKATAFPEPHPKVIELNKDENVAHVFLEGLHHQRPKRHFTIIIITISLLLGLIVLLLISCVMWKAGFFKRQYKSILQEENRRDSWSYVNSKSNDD
# Sequence of mouse α4β7 integrin on TK1 cells (mouse) (P26011 20-806, chain 2 of 2, further chain): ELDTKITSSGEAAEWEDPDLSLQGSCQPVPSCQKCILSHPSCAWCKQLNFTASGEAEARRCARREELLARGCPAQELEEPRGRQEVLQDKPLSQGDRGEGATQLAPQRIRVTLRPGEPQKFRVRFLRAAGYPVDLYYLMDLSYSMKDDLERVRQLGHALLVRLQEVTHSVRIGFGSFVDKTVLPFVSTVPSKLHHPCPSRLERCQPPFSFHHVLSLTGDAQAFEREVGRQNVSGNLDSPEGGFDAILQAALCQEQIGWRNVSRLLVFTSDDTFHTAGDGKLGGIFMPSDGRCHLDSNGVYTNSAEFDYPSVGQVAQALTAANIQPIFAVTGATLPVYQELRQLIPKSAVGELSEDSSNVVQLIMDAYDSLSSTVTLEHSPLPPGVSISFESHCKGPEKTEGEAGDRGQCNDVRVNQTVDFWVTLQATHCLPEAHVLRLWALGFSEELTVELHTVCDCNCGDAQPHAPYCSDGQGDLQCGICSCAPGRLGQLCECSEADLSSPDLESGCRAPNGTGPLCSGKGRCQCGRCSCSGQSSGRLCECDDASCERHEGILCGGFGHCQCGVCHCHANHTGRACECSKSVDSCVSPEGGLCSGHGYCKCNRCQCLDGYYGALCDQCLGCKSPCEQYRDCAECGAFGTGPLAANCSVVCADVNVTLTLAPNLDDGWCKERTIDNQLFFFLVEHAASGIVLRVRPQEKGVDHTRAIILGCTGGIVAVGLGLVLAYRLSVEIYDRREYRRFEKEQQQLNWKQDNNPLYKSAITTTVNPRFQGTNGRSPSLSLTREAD
# [5] = molecular target: T1, rh integrin α4β7 (R&D Systems #5397-A30) (human, UniProt P13612 34-970; P26010 20-723); experiment: competition ELISA vs MAdCAM-1
# T1 construct: Bought recombinant heterodimer, coated on a nickel plate; also called immobilized α4β7; soluble α4β7 integrin
# [6] = molecular target: T1, rh integrin α4β7 (R&D Systems #5397-A30); experiment: SPR, biotin peptide on streptavidin chip, soluble α4β7
# [7] = molecular target: human α4β7 integrin on cells (human) (UniProt P13612); experiment: FACS, human whole blood, 1 mM MnCl2; CD4 naïve T cells
# [8] = molecular target: human α4β7 integrin on cells (human) (UniProt P13612); experiment: FACS, human whole blood, 1 mM MnCl2; NK cells CD16+ 56+
# [9] = molecular target: human α4β7 integrin on cells (human) (UniProt P13612); experiment: FACS, human whole blood, 1 mM MnCl2; Monocytes
# [10] = molecular target: human α4β7 integrin on cells (human) (UniProt P13612); experiment: FACS, human whole blood, 1 mM MnCl2; Eosinophils
# [11] = molecular target: human α4β7 integrin on cells (human) (UniProt P13612); experiment: FACS, human whole blood, 1 mM MnCl2; CD19+ B cells
# [12] = molecular target: human α4β7 integrin on cells (human) (UniProt P13612); experiment: FACS, human whole blood, 1 mM MnCl2; Neutrophils
# [13] = molecular target: human α4β7 integrin on cells (human) (UniProt P13612); experiment: FACS, human whole blood, 1 mM MnCl2; CD4 memory T cells
# [14] = molecular target: human α4β7 integrin on cells (human) (UniProt P13612); experiment: FACS, human whole blood, 1 mM MnCl2; CD8 naïve T cells
# [15] = molecular target: rh integrin α4β7 (R&D Systems #5397-A30) (human) (UniProt P13612); experiment: SPR, biotin antibody on streptavidin chip, soluble α4β7
# [16] = molecular target: human α4β7 integrin on cells (human) (UniProt P13612); experiment: FACS, human whole blood, 1 mM MnCl2; CD8 memory T cells
# [17] = molecular target: human α4β7 integrin on cells (human) (UniProt P13612); experiment: FACS, human whole blood, 1 mM MnCl2; Basophils
# [18] = molecular target: human α4β7 integrin on cells (human) (UniProt P13612); experiment: PBMC memory T cell adhesion
IC50 [1],IC50 [2],IC50 [3],IC50 [4],further results,Binder
> 10 nM,> 100 nM,< 10 nM,–,–,Ac-[Pen][NMeR]SDTL[Pen][2Nal][dE][dK]-NH2 (disulfide 1-7; also: dimer via DIG) [SEQ ID NO: 33]
< 10 nM,> 1000 nM,< 10 nM,–,–,Ac-[Pen][NMeR]SDTL[Pen][2Nal][β3hE][dK]-NH2 (disulfide 1-7 (inferred); also: homodimer via DIG) [SEQ ID NO: 137]
< 10 nM,> 100 nM,< 10 nM,–,–,Ac-[Pen][NMeR]SDTL[Pen][1Nal]E[dK]-NH2 (disulfide 1-7; also: dimer via DIG) [SEQ ID NO: 24]
> 10 nM,> 100 nM,< 10 nM,–,–,Ac-[Pen][NMeR]SDTL[Pen][1Nal][dE][dK]-NH2 (disulfide 1-7; also: dimer via DIG) [SEQ ID NO: 32]
< 10 nM,> 100 nM,< 10 nM,< 10 nM,–,Ac-[Pen][NMeR]SDTL[Pen][1Nal]E[dNMeK]-NH2 (disulfide 1-7; also: dimer via DIG) [SEQ ID NO: 44]
< 10 nM,> 100 nM,< 10 nM,–,–,Ac-[Pen][NMeR]SDTL[Pen][1Nal][dE][dNMeK]-NH2 (disulfide 1-7; also: dimer via DIG) [SEQ ID NO: 38]
> 100 nM,> 1000 nM,–,> 1000 nM,–,Ac-[Pen][NMeR]SDTL[Pen][Tic][β3hE]-NH2 (disulfide 1-7 (inferred)) [SEQ ID NO: 154]
–,–,–,–,IC50 [5]: > 1000 nM,Ac-[Pen][NMeR]S[Prop acid]TL[Pen]WE[dK]-NH2 (disulfide 1-7) [SEQ ID NO: 47]
< 10 nM,> 1000 nM,< 10 nM,< 10 nM,–,Ac-[Pen][NMeR]SDTL[Pen][Bip][β3hE][NMeK]-NH2 (disulfide 1-7 (inferred); also: dimer via DIG linker) [SEQ ID NO: 150]
–,–,–,–,half-life for dissociation [6]: 11.1 h and ~11 h,"Ac-[Pen][NMeR]SDTL[Pen][Phe(4-tBu)][β3hE][dK] (disulfide 1-7 (inferred); also: biotin attached via PEG linker, site not given here, dimer of two subunits joined by DIG linker, as Peptide X) [Peptide X-biotin]"
–,–,–,–,Percent positive staining [7]: 55%; Percent positive staining [8]: 42%; Percent positive staining [9]: 7%; Percent positive staining [10]: 91%; Percent positive staining [11]: 85%; Percent positive staining [12]: 0.45%; Percent positive staining [13]: 22%; Percent positive staining [14]: 53%; Half-life for dissociation [15]: 43 min; Kd [15]: 59.5 nM; koff [15]: 0.000266 s⁻¹; kon [15]: 4470 M⁻¹ s⁻¹; Percent positive staining [16]: 36%; Percent positive staining [17]: 86%,"Vedolizumab-biotin (antibody, INN chains, looked up, V domains shown, biotin label) VH: QVQLVQSGAEVKKPGASVKVSCKGSGYTFTSYWMHWVRQAPGQRLEWIGEIDPSESNTNYNQKFKGRVTLTVDISASTAYMELSSLRSEDTAVYYCARGGYDGWDYAIDYWGQGTLVTVSS VL: DVVMTQSPLSLPVTPGEPASISCRSSQSLAKSYGNTYLSWYLQKPGQSPQLLIYGISNRFSGVPDRFSGSGSGTDFTLKISRVEAEDVGVYYCLQGTHQPYTFGQGTKVEIKR"
< 10 nM,> 500 nM,< 10 nM,–,IC50 [18]: > 50 nM,Ac-[Pen][NMeR]SDTL[Pen][1Nal][β3hE][NMeK]-NH2 (disulfide 1-7 (inferred); also: dimer via DIG linker) [SEQ ID NO: 142]
2.5 nM,70 nM,2 nM,2.5 nM,–,"Ac-[Pen][NMeR]SDTL[Pen][2Nal]E[dK]-NH2 (disulfide 1-7; also: dimer via DIG, attachment site not given here) [Peptide 212]"
< 10 nM,> 100 nM,< 10 nM,–,–,Ac-[Pen][NMeR]SDTL[Pen][2Nal]E[dNMeK]-NH2 (disulfide 1-7; also: dimer via DIG) [SEQ ID NO: 41]
< 10 nM,> 100 nM,< 10 nM,–,–,Ac-[Pen][NMeR]SDTL[Pen][Bip]E[dK]-NH2 (disulfide 1-7 (inferred); also: homodimer via DIG) [SEQ ID NO: 134]
> 25 nM,> 1000 nM,–,> 25 nM,–,Ac-[Pen][NMeR]SDTL[Pen][2Nal][β3hE]-NH2 (disulfide 1-7 (inferred)) [SEQ ID NO: 155]
40 nM,200 nM,11 nM,60 nM,IC50 [18]: 517 nM,Ac-[Pen][NMeR]SDTL[Pen][2Nal]E[dK]-NH2 (disulfide 1-7; SMILES CC(=O)N[C@@H]1C(=O)N(C)[C@@H](CCCNC(=N)N)C(=O)N[C@@H](CO)C(=O)N[C@@H](CC(=O)O)C(=O)N[C@@H]([C@@H](C)O)C(=O)N[C@@H](CC(C)C)C(=O)N[C@H](C(=O)N[C@@H](Cc2ccc3ccccc3c2)C(=O)N[C@@H](CCC(=O)O)C(=O)N[C@H](CCCCN)C(N)=O)C(C)(C)SSC1(C)C) [Peptide 210]

# — patent US20180148477A1 (published 2018)
